{"source": "patent US12037418B2", "about": "“Hydrogel-forming peptides, and methods of use thereof” (Nanyang Technological University, priority 2020, dated 2024)", "key": {"[1]": {"assay": "Peptide gelation (incubation, OD 550 nm, inverted tube)", "type": "physicochemical", "settings": "for self-assembly behaviour observed over time / gel formation in water: DI water; for self-assembly behaviour observed over time: up to 40 h; for gel formation in water: C-terminus Val mutated", "protocol": "UV-Vis spectroscopy: The peptides were dissolved in DI water at the respective concentrations and 100 μL was aliquoted into each well of a 96-well microtiter plate, with a minimum of 3 wells per condition. UV-Vis absorbance measurements at 550 nm were recorded on a Tecan infinite M200 Pro microplate reader at intervals of 30 min for the first 16 hours and subsequently at increased time intervals.\nPeptide hydrogel (GV8): GV8 peptide was dissolved in DI water at the desired concentration (between 10 and 20 mM) and incubated at ambient temperature of 23° C. to 25° C. for at least 12 hours. For active agent encapsulation, GV8 hydrogels were prepared at concentrations of 20 mM to 50 mM with 1% Dimethylsulfoxide (DMSO) added per 10 mM of peptide in PBS with a pH range of 7.2 to 7.4 to form GV8 precursors, which gelate in a sealed environment under ambient temperature of 23° C. to 25° C. with a typical gelation time ranging from 5 h to 9 h (FIG. 1), depending on the concentration of the GV8 precursor. The GV8 precursors were prepared in various types of buffer solutions—such as DI water, Dulbecco's Modified Eagle's medium (DMEM), sodium acetate buffered solution with a pH range of 4 to 5, and/or buffered solutions with a pH ranging from pH 4 to 7.4.\nPeptide hydrogel (GI8): GI8 peptide was dissolved in DI water at the desired concentration (between 10 and 20 mM) and incubated at ambient temperature of 23° C. to 25° C. for at least 12 hours. GI8 hydrogels were prepared at concentrations of 20 mM to 50 mM with or without 1% Dimethylsulfoxide (DMSO) added per 10 mM of peptide in PBS with a pH range of 7.2 to 7.4 to form GI8 precursors, which gelate in a sealed environment under ambient temperature of 23° C. to 25° C. with a typical gelation time ranging from 2 h to 7 h (FIG. 1), depending on the concentration of the GI8 precursor. The GI8 precursors were prepared in various types of buffer solutions—such as DI water, Dulbecco's Modified Eagle's medium (DMEM), sodium acetate buffered solution with a pH range of 4 to 5, and/or buffered solutions with a pH ranging from pH 4 to 7.4. […]"}, "[2]": {"test_system": "topical puncture wounds", "assay": "In vivo wound healing assay, hydrogels applied to topical puncture wounds", "parameters": "species or system mice", "settings": "especially at initial stages (0 d to 2 d), n=3", "protocol": "In vivo assay: To investigate the wound healing property of the hydrogels, 30 μL GV8 and GV8+ hydrogels loaded with 200 μg/mL ADMSC secretome were applied to topical puncture wounds on non-diabetic mice models, and monitored for a period of 2 d, 5 d and 7 d at various points in time. Representative wounds have been presented in FIG. 26, illustrating the healing of untreated (blank) and treated wounds over 7 d."}, "[3]": {"settings": "in the presence of Mg2+; cited from earlier work"}, "[4]": {"assay": "Nanoindentation of GL8 beads", "type": "physicochemical"}}}
{"substance": "Ac-GLYGGYGI-NH2 [GI8]", "values": [{"measurement": "incubation time to hydrogel formation", "setting": "[1]; 10 mM peptide in water, inverted tube test", "result": 1, "unit": "h"}, {"measurement": "self-assembly behaviour observed over time", "setting": "[1]", "result": "remained in solution with some gel-like formation observed overtime"}]}
{"substance": "Ac-GLYGGYGV-NH2 [GV8]", "values": [{"measurement": "effect on wound closure versus control wounds", "setting": "[2]", "result": "promoted and accelerated wound closure"}, {"measurement": "minimal critical gelation concentration (cgc)", "setting": "[1]; in water", "result": 10, "unit": "mM"}]}
{"substance": "E2(SL)6E2GRGDS", "values": [{"measurement": "storage modulus (G′)", "setting": "[3]", "result": "about 480 Pa"}]}
{"substance": "GA8: Ac-GLYGGYGX-NH2 (SEQ ID NO: 11) peptide, C-terminus Val residue mutated to Ala (Ac-GLYGGYGA-NH2)", "values": [{"measurement": "gel formation in water", "setting": "[1]", "result": "not able to form gels in water"}]}
{"substance": "GF8: Ac-GLYGGYGX-NH2 (SEQ ID NO: 11) peptide, C-terminus Val residue mutated to Phe (Ac-GLYGGYGF-NH2)", "values": [{"measurement": "gel formation in water", "setting": "[1]", "result": "not able to form gels in water"}, {"measurement": "self-assembly behaviour observed over time", "setting": "[1]", "result": "remained in solution with some gel-like formation observed overtime"}]}
{"substance": "GK8: Ac-GLYGGYGX-NH2 (SEQ ID NO: 11) peptide, C-terminus Val residue mutated to Lys (Ac-GLYGGYGK-NH2)", "values": [{"measurement": "gel formation in water", "setting": "[1]", "result": "not able to form gels in water"}]}
{"substance": "GL8: Ac-GLYGGYGX-NH2 (SEQ ID NO: 11) peptide, C-terminus Val residue mutated to Leu (Ac-GLYGGYGL-NH2)", "values": [{"measurement": "gel formation in water", "setting": "[1]", "result": "not able to form gels in water"}, {"measurement": "self-assembly behaviour observed over time", "setting": "[1]", "result": "self-assembled into large (mm-size) and stiff beads"}, {"measurement": "Young's modulus, dried", "setting": "[4]; dried condition", "result": 8.34, "unit": "GPa"}, {"measurement": "Young's modulus, hydrated", "setting": "[4]; hydrated condition", "result": 3.03, "unit": "GPa"}]}
{"substance": "GS8: Ac-GLYGGYGX-NH2 (SEQ ID NO: 11) peptide, C-terminus Val residue mutated to Ser (Ac-GLYGGYGS-NH2)", "values": [{"measurement": "gel formation in water", "setting": "[1]", "result": "not able to form gels in water"}]}
